Molecular target: expa_drome ex (UniProt Q07436)
Chain of UniProt Q07436 (Q07436 whole entry): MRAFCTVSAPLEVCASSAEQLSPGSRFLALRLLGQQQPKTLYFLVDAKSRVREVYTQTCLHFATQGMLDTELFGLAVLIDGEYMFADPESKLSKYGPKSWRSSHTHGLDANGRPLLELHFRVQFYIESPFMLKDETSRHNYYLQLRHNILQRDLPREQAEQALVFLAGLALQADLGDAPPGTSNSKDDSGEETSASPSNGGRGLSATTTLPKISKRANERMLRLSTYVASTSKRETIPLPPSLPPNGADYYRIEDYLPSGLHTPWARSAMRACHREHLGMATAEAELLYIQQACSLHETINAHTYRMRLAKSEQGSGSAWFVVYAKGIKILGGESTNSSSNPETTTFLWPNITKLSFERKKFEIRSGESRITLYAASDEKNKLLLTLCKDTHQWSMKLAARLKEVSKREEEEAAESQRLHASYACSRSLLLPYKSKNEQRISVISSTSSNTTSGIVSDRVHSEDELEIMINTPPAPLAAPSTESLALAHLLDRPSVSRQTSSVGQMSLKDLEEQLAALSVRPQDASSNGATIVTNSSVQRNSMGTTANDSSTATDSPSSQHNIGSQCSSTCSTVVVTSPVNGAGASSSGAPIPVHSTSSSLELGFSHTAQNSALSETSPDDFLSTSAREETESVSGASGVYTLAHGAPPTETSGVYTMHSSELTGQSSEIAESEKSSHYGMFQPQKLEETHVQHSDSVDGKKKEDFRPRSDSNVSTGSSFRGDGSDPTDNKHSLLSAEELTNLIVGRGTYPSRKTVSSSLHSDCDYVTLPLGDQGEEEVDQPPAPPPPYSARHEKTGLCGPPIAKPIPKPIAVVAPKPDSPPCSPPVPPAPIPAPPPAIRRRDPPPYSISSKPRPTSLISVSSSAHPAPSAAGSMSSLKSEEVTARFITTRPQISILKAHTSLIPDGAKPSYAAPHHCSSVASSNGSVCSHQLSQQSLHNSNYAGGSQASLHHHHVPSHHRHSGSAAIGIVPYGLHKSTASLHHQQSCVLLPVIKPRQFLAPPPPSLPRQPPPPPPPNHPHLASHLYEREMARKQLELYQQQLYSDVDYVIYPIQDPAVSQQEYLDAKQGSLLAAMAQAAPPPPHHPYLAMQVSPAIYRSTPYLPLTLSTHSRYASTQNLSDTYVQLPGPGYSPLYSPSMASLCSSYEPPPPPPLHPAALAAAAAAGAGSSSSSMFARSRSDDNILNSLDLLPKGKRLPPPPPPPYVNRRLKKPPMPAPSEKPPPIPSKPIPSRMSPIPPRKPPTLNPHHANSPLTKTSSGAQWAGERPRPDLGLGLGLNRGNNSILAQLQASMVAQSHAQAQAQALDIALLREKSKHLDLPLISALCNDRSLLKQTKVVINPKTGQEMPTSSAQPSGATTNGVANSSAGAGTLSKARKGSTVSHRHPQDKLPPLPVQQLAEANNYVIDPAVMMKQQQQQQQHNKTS

effect of a mutation on the interaction: disrupting interaction
Substance: Protein crumbs (Drosophila melanogaster (Fruit fly)), P10040 Y2119A;P2121A;E2125A

From IntAct's records for PubMed 20498073
